The data set deals with MS2 coat protein. Briefly: apparent KD of MS2 coat protein; designed switch direction (-1 OFF switch, 1 ON switch): 1; higher = weaker reporter binding. The essentials: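 Normalised cluster fluorescence was curve-fitted, and each design's median over clusters is its apparent KD. Before this, SNAP-549-labelled MS2 coat protein was titrated from 0.7 or 1.5 nM, doubling to 3 µM, over RNA switches transcribed on Illumina chips by stalled E. coli RNA polymerase. Titrations had no input, 200 uM small-molecule ligand, or an oligonucleotide input, and steps lasted 0.8–1.5 h (lowest) to 10–20 min (highest).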

[1] abbreviates: Eterna round: R95, input ligand: FMN 200 uM.
The mark [2] stands for this setting: Eterna round: R95, input ligand: microRNA oligo, concentration not stated.
Where [3] appears, read: Eterna round: R95, input ligand: none.
Setting [4] is: input ligand: microRNA oligo, concentration not stated.

The text below walks through data of the supplement of paper PMC9170038.

As for “GAGGAUGAUUUACAGGAUAUAUAGGAGAUGACAUGAGGAUCACCCAUGUAGGAGAUAGGAGUGAGAUAGAAGGGUAAGUGAUGUG [JR_SS2_Sub43] (puzzle: Same State 2)”, the “apparent KD of MS2 coat protein” value is, setting by setting: under setting [1], 58.9 nM; under setting [2], 122 nM; under setting [3], 114 nM.

Regarding “GAAUAGUUGAGAGGAUAUCUAUUAUUGUAGGAUAGAGAAGGUUUUAACAUGAGGAUCACCCAUGUAGGACUAUAUAUGUGAAUA [Parity 99 - Jieux - Same State NG 1] (Eterna round: R96, puzzle: Same State NG 1)”, the “apparent KD of MS2 coat protein” value reads like this: (input ligand: FMN 200 uM) 14.2 nM; under setting [4], 12.5 nM; (input ligand: none) 15.3 nM.

For “UGCUAUUGUAUAUUGGUGCAAGCUUAUUGACAUGAGGAUCACCCAUGUACUCGUCUUAUGUGCAGUCCGUAGACUGC [JL-shm-2.25 Brourd mod] (puzzle: Sensor for hsa-mir-208a)”, the “apparent KD of MS2 coat protein” value under setting [1] came to 72 nM, the “apparent KD of MS2 coat protein” value under setting [2] worked out at 13.9 nM and the “apparent KD of MS2 coat protein” value under setting [3] is 78.7 nM.

Regarding “GCCAUCGUAUGAGGAUAUGGCACCGAAACGGUGCCAGAAGGCAUGUCAAUAGACAUGAGGAUCACCCAUGUAUUAUCGAUGGCA [Mat - Same State NG 1 - JL mod - D90] (Eterna round: R96, puzzle: Same State NG 1)”, the “apparent KD of MS2 coat protein” value under setting [4] came out at 278 nM.

As for “AGUCCAGCCUGAGCUGGACAAAAGCAUGUACAUGAGGAUCACCCAUGUUCAUGUACAAGCUUUUUGCUCGUCUUACU [salish99_208a_r3_077] (puzzle: Sensor for hsa-mir-208a)”, the “apparent KD of MS2 coat protein” value runs as follows: under setting [1], 618 nM; under setting [2], 14.6 nM; under setting [3], 635 nM.

For the sequence “UUUUUAUAACAUGAGGAUCACCCAUGUGCGCGCACAAGGUUGUUGCUCGUCUUAUUUUUUUUUUUUUUUUUUUUUUU [viviankchen2] (puzzle: Sensor for hsa-mir-208a version 2)”, the “apparent KD of MS2 coat protein” value by setting is: under setting [1], 33.2 nM; under setting [2], 220 nM; under setting [3], 44.1 nM.

Regarding “UUGUUUCGUCAUUAACAUGAGGAUCACCCAUGUAAAGGAGCAGAGGAUAUGCAUGUUUGAUUGUAGCAGAAGGCUGAUUGUUGU [JR_SSNG3_Sub034] (Eterna round: R96, puzzle: Same State NG 3)”, the “apparent KD of MS2 coat protein” value (input ligand: FMN 200 uM) was found to be 32.6 nM, the “apparent KD of MS2 coat protein” value under setting [4] is 27.9 nM and the “apparent KD of MS2 coat protein” value (input ligand: none) was determined as 31.9 nM.

In the case of “AUCCUACAUGAGGAUCACCCAUGUGACGCCUCGAUAGGAUAUGCGUGUGCCUUGGCGCAUGCAGAAGGAUUGUUGC [JL Aveso mod 7] (Eterna round: R96, puzzle: Same State 1)”, under setting [4], the “apparent KD of MS2 coat protein” value worked out at 20.3 nM.

For “GCCAACUUAUGAGGAUAUGGCACCUUAUUGGUGCCAGAAGGCAUGUCAAUUGACAUGAGGAUCACCCAUGUAUUAUAGUUGGCA [Fiskers NG1ss - 21] (Eterna round: R96, puzzle: Same State NG 1)”, the “apparent KD of MS2 coat protein” value under setting [4] was 326 nM.

Regarding “UUUAUACAUGAGGAUCACCCAUGUCAAUGUAGUCGAGGAUAUGGGCAGCCGUGAGGCGUACUAGAAGGCGAAGAGG [JL-ss1-3.09 ViennaUCT mod] (puzzle: Same State 1)”, the “apparent KD of MS2 coat protein” value under setting [2] was determined as 117 nM.

Turning to “GGCAGGUGCAGGCUUGCUUGCACCUGGAAACAUGAGGAUCACCCAUGUUUGGGACAAGCUUUGCUCCUCGUUUUGUC [JL ViennaUCT Isusreraar mod 3] (puzzle: Sensor for hsa-mir-208a)”, the “apparent KD of MS2 coat protein” value is 209 nM under setting [1], 133 nM under setting [2] and 288 nM under setting [3].

For the sequence “CGCGCUCCGGUAGGAUAUGAGGUGCCGUAGGGACCCGCCUACGGACAUGAGGAUCACCCAUGUCCUCAGAAGGACCGGGCGUGA [Soenonorma] (Eterna round: R96, puzzle: Same State NG 2)”, the “apparent KD of MS2 coat protein” value is, setting by setting: (input ligand: FMN 200 uM) 15.1 nM; under setting [4], 29.6 nM; (input ligand: none) 35.5 nM.

For “AUCAUAGUAGCGCAGGAUAUCCAGGUCGAGACAUGAGGAUCACCCAUGUCAGCAGGAGGACCAGAGGAGAAGGGUGAGAAAAUAA [Bimaan] (puzzle: Same State 2)”, the “apparent KD of MS2 coat protein” value turned out to be 12.5 nM under setting [1], 14.2 nM under setting [2] and 16.7 nM under setting [3].

Take “UGAGCCGGCACUGAGGAUAUUCAUAUUUAAACAUGAGGAUCACCCAUGUAGGCCAGAAGGCCUUGGGAGAAGGCAGGUCGGCUCU [salish99_ss2_r3_078] (puzzle: Same State 2)”: under setting [2], the “apparent KD of MS2 coat protein” value is 258 nM.

For “CUAAAACAUGAGGAUCACCCAUGUCAACAAAGUCGAGGAUAUGGGCAAAUAAAAUAAGAACCAGAAGGCGAAUAAU [salish99_SS1_r3_012] (puzzle: Same State 1)”, the “apparent KD of MS2 coat protein” value reads like this: under setting [1], 42.3 nM; under setting [2], 422 nM; under setting [3], 485 nM.

In the case of “UACAAUCUAUCUGAGGAUAUCAUGCAUUACACAUGAGGAUCACCCAUGUGCAGGAAAACUGCAUAUGAGAAGGCAGAUAGAUUGU [salish99_ss2_r3_066] (puzzle: Same State 2)”, the “apparent KD of MS2 coat protein” value worked out at 20.1 nM under setting [1], 457 nM under setting [2] and 472 nM under setting [3].

As for “AGUCCAGCCUGAGCUGGACAAAAGCAUGUACAUGAGGAUCACCCAUGUUCAUGUACAAGCUUUUUGCUCGUCUAAAA [Mat - hsa-mir-208a - Mod of JL - 50] (puzzle: Sensor for hsa-mir-208a)”, the “apparent KD of MS2 coat protein” value by setting is: under setting [1], 414 nM; under setting [2], 16.2 nM; under setting [3], 540 nM.

As to “AUAAAACAUGAGGAUCACCCAUGUCAACAAAGUCGAGGAUAUGGGCAAAUUAAAUAAGAACCAGAAGGCGAAUAAU [salish99_ss1_r3_024] (puzzle: Same State 1)”, the “apparent KD of MS2 coat protein” value turned out to be 33.3 nM under setting [1], 184 nM under setting [2] and 232 nM under setting [3].

As for “AAGAACAAGCGAAAGGCCCGUCUUAUAUAACAUGAGGAUCACCCAUGUAAGGUGAAAGUUAGAGAGUGGAGGUUGAA [JR_SHM208A_Sub047] (puzzle: Sensor for hsa-mir-208a)”, the “apparent KD of MS2 coat protein” value runs as follows: under setting [1], 284 nM; under setting [2], 282 nM; under setting [3], 340 nM.

“AAUAUAUUAAGUGAGGAUAUCAUAGAAAAAACAUGAGGAUCACCCAUGUGGGAAACCUGGUCGGGUGAGAAGGCACUUAAUAUAU [Samwise Clockwise 29 - Jieux - Same State 2] (Eterna round: R96, puzzle: Same State 2)”: the “apparent KD of MS2 coat protein” value is, setting by setting: (input ligand: FMN 200 uM) 85.2 nM; under setting [4], 823 nM; (input ligand: none) 1280 nM.

On to “AAUUAAUUAAUUAAGUACAUGAGGAUCACCCAUGUAAGUGAUCAGGAUAUCAGCUCGUUUAGAGCUGAGAAGGGAUCCAUGUAC [SSNG3/15-A3] (Eterna round: R96, puzzle: Same State NG 3)”, for which the “apparent KD of MS2 coat protein” value (input ligand: FMN 200 uM) came to 360 nM, the “apparent KD of MS2 coat protein” value under setting [4] is 297 nM and the “apparent KD of MS2 coat protein” value (input ligand: none) was found to be 404 nM.

As to “AGCUAUCGAAAACGAUAGCAAAAGCAUGUACAUGAGGAUCACCCAUGUCAUGUACAAGUUUUUUGCUCGUCUUAAAA [Zipper 23 - 13] (puzzle: Sensor for hsa-mir-208a)”, the “apparent KD of MS2 coat protein” value came to 107 nM under setting [1], 13.1 nM under setting [2] and 121 nM under setting [3].

With “AACAGUCGGCGAGGAUAUGGACGUACAGGUUUGCCUGUGCGGCUCACAUGAGGAUCACCCAUGUUCUAGAAGGCGCCACUGAGA [Lausrein] (Eterna round: R96, puzzle: Same State NG 2)”, the “apparent KD of MS2 coat protein” value (input ligand: FMN 200 uM) came out at 19.9 nM, the “apparent KD of MS2 coat protein” value under setting [4] came out at 48.8 nM and the “apparent KD of MS2 coat protein” value (input ligand: none) worked out at 81.2 nM.

For the sequence “AACAAUCUAUCUGAGGAUAUCAUGAAAAAAACAUGAGGAUCACCCAUGUGCAGGAAAACUGCAUAUGAGAAGGCAGAUAGAUUGG [salish99_SS2_r3_003] (puzzle: Same State 2)”, the “apparent KD of MS2 coat protein” value reads like this: under setting [1], 23.2 nM; under setting [2], 589 nM; under setting [3], 814 nM.

For the sequence “CAGUGCUGUUGAGAGGAUAUGCGGCGACGGACAUGAGGAUCACCCAUGUUAGCGACAGCGUUGCGGCAGAAGGCUCUGCCCACUG [Soteed Omei mod 49] (puzzle: Same State 2)”, the “apparent KD of MS2 coat protein” value under setting [2] amounted to 8.8 nM.

As to “CCAGGACAUGAGGAUCACCCAUGUGCUUAAUGUGGAGAAUCUCAGGAUAUCAUGAGGAUCACCCAUGAGAAGGGAGAUCCGAGG (Eterna round: R96, puzzle: Same State NG 3)”, the “apparent KD of MS2 coat protein” value was 573 nM (input ligand: FMN 200 uM), 234 nM under setting [4] and 398 nM (input ligand: none).

As for “AAGCCUGUAGCACAGGAUAUCCGAGGCAAAACAUGAGGAUCACCCAUGUCAAACGAAAAUCCGAAGGAGAAGGGUGAACAGGCUC [Laarededqu] (puzzle: Same State 2)”, the “apparent KD of MS2 coat protein” value was found to be 10.9 nM under setting [1], 7.83 nM under setting [2] and 8.24 nM under setting [3].

“UGUCCAGCCUGAGCUGGACAAAAGCAUGUACAUGAGGAUCACCCAUGUUCAUGUACAAGCUUUUUGCUCGUCUUAAG [salish99_208a_r3_032] (puzzle: Sensor for hsa-mir-208a)”: the “apparent KD of MS2 coat protein” value runs as follows: under setting [1], 547 nM; under setting [2], 13.9 nM; under setting [3], 533 nM.

For the sequence “CUCAAACAUGAGGAUCACCCAUGUUUUUUCAUGGGAGGAUAUCUAAGUUCAUUAUAUUCAGGAGAAGGCCUAUCUC [× ×•×ª×• ×ž×“×™× ×” × ×—×ª-06] (puzzle: Same State 1)”, the “apparent KD of MS2 coat protein” value under setting [1] came to 54.5 nM, the “apparent KD of MS2 coat protein” value under setting [2] was found to be 36 nM and the “apparent KD of MS2 coat protein” value under setting [3] is 30.3 nM.
